Biological target: T1, Flag-myc-CAD (Homo sapiens (Human), UniProt Q13586 342-448)
T1 construct: also called Flag-tagged CAD; not shown: Flag and myc tags from the custom vector pDEST-pGWI-Flag-Myc-x
Experiment: co-immunoprecipitation from HEK 293T cells
Experimental: Immunoprecipitation and Immunoblot Analysis. […] Lysates were spun at 12,000 rpm for 10 min, and the supernatant was incubated with anti-Flag M2 agarose beads (Sigma), or anti-myc or -HA antibody followed by IgG agarose beads (Pierce). Lysates and immunoprecipitates were subjected to SDS-PAGE, probed with HRP-conjugated secondary antibody and detected by enhanced chemiluminescence (Pierce).
STIM1-CAD BINDS TO THE N- AND C-TERMINI OF ORAI1. To identify regions of Orai1 important for activation by CAD, we characterized the binding of CAD to Orai1 using two approaches. First we expressed fusions of NubG with the N-terminus, the II-III cytoplasmic loop and the C-terminus of Orai1 in yeast together with different CAD-Cub-LV constructs. […] Based on the level of b-gal activity, CAD appears to interact with the Orai1 C-terminus with a higher affinity than with the N-terminus.

T1 sequence (Q13586 342-448): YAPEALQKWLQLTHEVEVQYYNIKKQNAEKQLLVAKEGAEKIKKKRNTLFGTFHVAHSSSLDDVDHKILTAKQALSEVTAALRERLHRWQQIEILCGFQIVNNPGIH

binding result: no binding
B1: Orai1 1-70, expressed in HEK 293T cells (other)
chain: MHPEPAPPPSRSSPELPPSGGSTTSGSRRSRRRSGDGEPPGAPPPPPSAVTYPDWIGQSYSEVMSLNEHS
notes: not shown: The detection tag of the HEK construct (probably N-terminal YFP)

From patent US20120165265A1 (published 2012)
